Residue numbers refer to the chain shown, from its start. Names and notes keep the numbering of the source.
How the values were obtained:
scCD3εγ [1] = biological target: T1, scCD3εγ; assay: ELISA on scCD3εγ, DARPin titrated
T1 chain 1: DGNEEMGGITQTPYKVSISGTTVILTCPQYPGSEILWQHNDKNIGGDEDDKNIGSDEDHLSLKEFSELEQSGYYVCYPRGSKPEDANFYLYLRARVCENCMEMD
T1 chain 2: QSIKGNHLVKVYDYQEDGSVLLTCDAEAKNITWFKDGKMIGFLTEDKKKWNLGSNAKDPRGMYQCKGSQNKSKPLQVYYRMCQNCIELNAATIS

scCD3εγ [2] = biological target: T1, scCD3εγ; assay: SPR, bio-scCD3εγ coated on NAD chip, DARPin 333.33-4.11 nM
VEGF165 [3] = biological target: T2, VEGF165 (UniProt P15692-4 27-191, biotinylated in the ELISA of Example 4 (site not stated)); assay: SPR (ProteOn), VEGF165 immobilized, multi-trace 50-0.195 nM, 25 C
T2 construct: also called biotinylated VEGF165; soluble VEGF

[4] = biological target: T3, CD3-specific binding domain (SEQ ID NO: 3) (biotinylated when used as immobilized SPR ligand (site not stated)); assay: SPR; KD on CD3-specific binding domain (Ligand1) divided by KD on VEGF165 (Ligand2)
T3 construct: also called α-CD3 DARPin
T3 chain: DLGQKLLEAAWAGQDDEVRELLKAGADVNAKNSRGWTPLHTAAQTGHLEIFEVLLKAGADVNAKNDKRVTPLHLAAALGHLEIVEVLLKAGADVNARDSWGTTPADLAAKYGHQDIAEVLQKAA

[5] = biological target: T3, CD3-specific binding domain (SEQ ID NO: …); assay: SPR (ProteOn), biotinylated CD3-specific binding domain immobilized, multi-trace 50-0.195 nM, 25 C
scCD3εγ [6] = biological target: T1, scCD3εγ; assay: ELISA: plate-bound biotinylated scCD3εγ, His-tagged construct titrated, no VEGF
Experimental: (§1) The difference in binding of Switchdrug DARPins to scCD3εγ in presence and absence of VEGF was assessed. […] Said Switchdrug DARPins were mixed with a constant concentration of VEGF (100 nM) and tested for binding to scCD3εγ. […] The difference in EC50 of a construct in presence and absence of VEGF can be referred to as the “activation window”.
(§2) Switchdrug DARPins that were mixed with VEGF were titrated and pre-incubated for 1 day with VEGF in order to establish the thermodynamic equilibrium. These samples were loaded on the ELISA plate, incubated and washed, before the bound Switchdrug DARPins were detected as described above.

scCD3εγ [7] = biological target: T1, scCD3εγ; assay: ELISA: plate-bound biotinylated scCD3εγ, His-tagged construct titrated in presence of 100 nM soluble VEGF
Experimental: as §1, §2

scCD3εγ [8] = biological target: T1, scCD3εγ; assay: ELISA: plate-bound biotinylated scCD3εγ, His-tagged construct titrated without and with 100 nM soluble VEGF
Experimental: as §1, §2

VEGF165 [9] = biological target: T2, VEGF165; assay: ELISA: plate-bound biotinylated VEGF165, His-tagged construct titrated, no soluble VEGF, anti-His-HRP detection
Experimental: Then a titration of the Switchdrug DARPins was applied, incubated and washed. Detection of bound his-tagged constructs was done by anti-RGS(his)4 mAb HRP conjugate, and detected by TMB substrate.

scCD3εγ [10] = biological target: T1, scCD3εγ; assay: ELISA: plate-bound biotinylated scCD3εγ, His-tagged construct titrated in presence of 100 nM soluble VEGF
Experimental: as §1, §2

T2 sequence (P15692 other isoform, or with tags, fused parts or gaps limits assumed): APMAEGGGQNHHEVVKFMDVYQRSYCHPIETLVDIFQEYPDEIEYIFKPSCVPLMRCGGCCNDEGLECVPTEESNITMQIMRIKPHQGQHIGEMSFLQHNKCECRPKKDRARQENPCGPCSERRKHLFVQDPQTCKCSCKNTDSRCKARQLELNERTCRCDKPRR

B1: 2-in-1 DARPin 23 (SEQ ID NO: 92) (designed binder)
chain: DLGKKLLQAARAGQLDEVRELLKAGADVNAKDSQGRTPLHLAAFAGHLEIVEVLLKAGADVNAKDHAGWTPLHLAAYAGHLEIVEVLVKAGADVNAKDTEGKTPLHIAAWFGHLEIVEVLLKAGADVNAKDKSGQTPLHLAAWAGHLEIVEVLLKAGADVNAKNSRGWTPLHTAAQTGHLEIFEVLLKAGADVNAKNDKRVTPLHLAAALGHLEIVEVLLKAGADVNARDSWGTTPADLAAKYGHQDIAEVLQKAA
notes: Family 2, from Parent nos 3 and 4; tag not specified
EC50 (read off the curve) (scCD3εγ [1]): ~30 nM
Kd (scCD3εγ [2]): 3.81 nM

B2: 2-in-1 DARPin 20 (SEQ ID NO: 13) (designed binder)
chain: DLDKKLLEAARAGQDDEVRILLKAGADVNAKDSTGWTPLHLAAPWGHPEIVEVLLKAGADVNAKDFQGWTPLHLAAAAGHLEIVEVLLKAGADVNAKDVYGWTPLHLAAAAGHLEIVEVLLKAGADVNAKDWLGWTPLHLAASHGHLEIVEVLLKAGADVNAQDKSGKTPADLAARAGHQDIAEVLQKAA
notes: N4C mono-domain; purified by its His-tag
Kd (VEGF165 [3]): 0.69 nM
kon (VEGF165 [3]): 1.29e+06 M⁻¹ s⁻¹
KD ratio (Ligand1/Ligand2) [4]: 2.09
Kd [5]: 1.44 nM
koff [5]: 0.0005 s⁻¹
kon [5]: 350000 M⁻¹ s⁻¹

B3: 2-in-1 DARPin 18 (SEQ ID NO: 11) (designed binder)
chain: B2 chain with L107I, A111S
notes: as for B2
Kd (VEGF165 [3]): 0.1 nM
koff (VEGF165 [3]): 0.00012 s⁻¹
kon (VEGF165 [3]): 1.16e+06 M⁻¹ s⁻¹
KD ratio (Ligand1/Ligand2) [4]: 17
Kd [5]: 1.7 nM
koff [5]: 0.00087 s⁻¹
kon [5]: 514000 M⁻¹ s⁻¹

B4: 2-in-1 DARPin 19 (SEQ ID NO: 12) (designed binder)
chain: B2 chain with Q67K
notes: as for B2
Kd (VEGF165 [3]): 68.5 nM
koff (VEGF165 [3]): 0.0949 s⁻¹
kon (VEGF165 [3]): 1.38e+06 M⁻¹ s⁻¹
KD ratio (Ligand1/Ligand2) [4]: 0.00647
Kd [5]: 0.44 nM
koff [5]: 0.0002 s⁻¹
kon [5]: 450000 M⁻¹ s⁻¹

B5: 2-in-1 DARPin 24 (SEQ ID NO: 93) (designed binder)
chain: DLGKKLLQAARAGQLDEVRELLKAGADVNAKDSQGRTPLHLAAFAGHLEIVEVLLKAGADVNAKDHAGWTPLHLAAYAGHLEIVEVLVKAGADVNAKDTEGKTPLHIAAWFGHLEIVEVLLKAGADVNAKDKSGKTPLHLAARAGHLEIVEVLLKAGADVNAKDNSGQTPLHEAAWAGHLEIVEVLLKAGADVNAKNSRGWTPLHTAAQTGHLEIFEVLLKAGADVNAKNDKRVTPLHLAAALGHLEIVEVLLKAGADVNARDSWGTTPADLAAKYGHQDIAEVLQKAA
notes: as for B1
EC50 (read off the curve) (scCD3εγ [1]): ~10 nM
Kd (scCD3εγ [2]): 4.67 nM

B6: 2-in-1 DARPin 25 (SEQ ID NO: 94) (designed binder)
chain: B5 chain with E173L
notes: as for B1
EC50 (read off the curve) (scCD3εγ [1]): ~10 nM
Kd (scCD3εγ [2]): 4.05 nM

B7: Switchdrug DARPin 18-1 (designed binder)
chain: MRGSHHHHHHGSDLGQKLLEAAWAGQDDEVRELLKAGADVNAKNSRGWTPLHTAAQTGHLEIFEVLLKAGADVNAKNDKRVTPLHLAAALGHLEIVEVLLKAGADVNARDSWGTTPADLAAKYGHQDIAEVLQKAAGSPTPTPTTPTPTPTTPTPTPTGSDLDKKLLEAARAGQDDEVRILLKAGADVNAKDSTGWTPLHLAAPWGHPEIVEVLLKAGADVNAKDFQGWTPLHLAAAAGHLEIVEVLLKAGADVNAKDVYGWTPLHIAAASGHLEIVEVLLKAGADVNAKDWLGWTPLHLAASHGHLEIVEVLLKAGADVNAQDKSGKTPADLAARAGHQDIAEVLQKAA
notes: also called 2-in-1 DARPin18 in Format 1
EC50 (read off the curve) (scCD3εγ [6]): ~100 nM
EC50 (read off the curve) (scCD3εγ [7]): ~40 nM
shift in EC50 upon addition of 100 nM VEGF (scCD3εγ [8]): ~3 fold

B8: Switchdrug DARPin 15-1 (designed binder)
chain: MRGSHHHHHHGSDLGQKLLEAAWAGQDDEVRELLKAGADVNAKNSRGWTPLHTAAQTGHLEIFEVLLKAGADVNAKNDKRVTPLHLAAALGHLEIVEVLLKAGADVNARDSWGTTPADLAAKYGHQDIAEVLQKAAGSPTPTPTTPTPTPTTPTPTPTGSDLDKKLLEAARAGQDDEVRILLKAGADVNAKDSTGWTPLHLAAPWGHPEIVEVLLKAGADVNAKDFQGWTPLHLAAAAGHLEIVEVLLKAGADVNAKDWLGWTPLHLAASHGHLEIVEVLLKAGADVNAQDKSGKTPADLAARAGHQDIAEVLQKAA
notes: also called 2-in-1 DARPin15 in Format 1
EC50 (read off the curve) (scCD3εγ [6]): ~50 nM
EC50 (read off the curve) (scCD3εγ [7]): ~3 nM
shift in EC50 upon addition of 100 nM VEGF (scCD3εγ [8]): ~18 fold

B9: Switchdrug DARPin 15-A (designed binder)
chain: MRGSHHHHHHGSDLGKKLLQAARAGQLDEVRELLKAGADVNAKDQYGRTPLHLAAIKGHLEIVEVLLKAGADVNAKDSLGYTPLHLAAVEGPLEIVEVLLKAGADVNAKDAYGQTPLHIAAAWGHLEIVEVLLKAVADVNAQDKSGKTPADLAARAGHQDIAEVLQKAAGSPTPTPTTPTPTPTTPTPTPTGSDLGQKLLEAAWAGQDDEVRELLKAGADVNAKNSRGWTPLHTAAQTGHLEIFEVLLKAGADVNAKNDKRVTPLHLAAALGHLEIVEVLLKAGADVNARDSWGTTPADLAAKYGHQDIAEVLQKAAGSPTPTPTTPTPTPTTPTPTPTGSDLDKKLLEAARAGQDDEVRILLKAGADVNAKDSTGWTPLHLAAPWGHPEIVEVLLKAGADVNAKDFQGWTPLHLAAAAGHLEIVEVLLKAGADVNAKDWLGWTPLHLAASHGHLEIVEVLLKAGADVNAQDKSGKTPADLAARAGHQDIAEVLQKAA
notes: also called 2-in-1 DARPin15 in Format A
EC50 (read off the curve) (VEGF165 [9]): ~20 nM

B10: 2-in-1 DARPin 12 (SEQ ID NO: 7) (designed binder)
chain: DLDKKLLEAARAGQDDEVRILLKAGADVNAKDSTGWTPLHLAAPWGHPEIVEVLLKAGADVNAKDVYGWTPLHLAAAAGHLEIVEVLLKAGADVNAKDWLGWTPLHLAASHGHLEIVEVLLKAGADVNAQDKSGKTPADLAARAGHQDIAEVLQKAA
notes: N3C mono-domain; purified by its His-tag
Kd (VEGF165 [3]): 6.66 nM
koff (VEGF165 [3]): 0.0106 s⁻¹
kon (VEGF165 [3]): 1.59e+06 M⁻¹ s⁻¹
KD ratio (Ligand1/Ligand2) [4]: 0.195
Kd [5]: 1.3 nM
koff [5]: 0.00081 s⁻¹
kon [5]: 624000 M⁻¹ s⁻¹

B11: 2-in-1 DARPin 17 (SEQ ID NO: 10) (designed binder)
chain: B10 chain with D3G, E8Q, D15L, I20E, V66F, Y67Q
notes: as for B10
Kd (VEGF165 [3]): 0.18 nM
koff (VEGF165 [3]): 0.00085 s⁻¹
kon (VEGF165 [3]): 4.63e+06 M⁻¹ s⁻¹
KD ratio (Ligand1/Ligand2) [4]: 2180
Kd [5]: 392 nM

B12: 2-in-1 DARPin 15 (SEQ ID NO: 9) (designed binder)
chain: B10 chain with V66F, Y67Q
notes: as for B10
Kd (VEGF165 [3]): 0.02 nM
koff (VEGF165 [3]): 0.0001 s⁻¹
kon (VEGF165 [3]): 4.11e+06 M⁻¹ s⁻¹
KD ratio (Ligand1/Ligand2) [4]: 59100
Kd [5]: 1360 nM
koff [5]: 0.205 s⁻¹
kon [5]: 151000 M⁻¹ s⁻¹

B13: 2-in-1 DARPin 13 (SEQ ID NO: 8) (designed binder)
chain: B10 chain with V66F
notes: as for B10
Kd (VEGF165 [3]): 0.81 nM
koff (VEGF165 [3]): 0.00268 s⁻¹
kon (VEGF165 [3]): 3.29e+06 M⁻¹ s⁻¹
KD ratio (Ligand1/Ligand2) [4]: 14.2
Kd [5]: 11.5 nM
koff [5]: 0.008 s⁻¹
kon [5]: 693000 M⁻¹ s⁻¹

B14: 2-in-1 DARPin 11 (SEQ ID NO: 6) (designed binder)
chain: B10 chain with L74I, A78S
notes: as for B10
Kd (VEGF165 [3]): 11.1 nM
koff (VEGF165 [3]): 0.0153 s⁻¹
kon (VEGF165 [3]): 1.38e+06 M⁻¹ s⁻¹
KD ratio (Ligand1/Ligand2) [4]: 0.0865
Kd [5]: 0.96 nM
koff [5]: 0.00067 s⁻¹
kon [5]: 691000 M⁻¹ s⁻¹

B15: Switchdrug DARPin 15-B (designed binder)
chain: MRGSHHHHHHGSDLDKKLLEAARAGQDDEVRILLKAGADVNAKDSTGWTPLHLAAPWGHPEIVEVLLKAGADVNAKDFQGWTPLHLAAAAGHLEIVEVLLKAGADVNAKDWLGWTPLHLAASHGHLEIVEVLLKAGADVNAQDKSGKTPADLAARAGHQDIAEVLQKAAGSPTPTPTTPTPTPTTPTPTPTGSDLGKKLLQAARAGQLDEVRELLKAGADVNAKDQYGRTPLHLAAIKGHLEIVEVLLKAGADVNAKDSLGYTPLHLAAVEGPLEIVEVLLKAGADVNAKDAYGQTPLHIAAAWGHLEIVEVLLKAVADVNAQDKSGKTPADLAARAGHQDIAEVLQKAAGSPTPTPTTPTPTPTTPTPTPTGSDLGQKLLEAAWAGQDDEVRELLKAGADVNAKNSRGWTPLHTAAQTGHLEIFEVLLKAGADVNAKNDKRVTPLHLAAALGHLEIVEVLLKAGADVNARDSWGTTPADLAAKYGHQDIAEVLQKAA
notes: also called 2-in-1 DARPin15 in Format B
EC50 (read off the curve) (VEGF165 [9]): ~10 nM

B16: Switchdrug DARPin 18-3 (designed binder)
chain: MRGSHHHHHHGSDLDKKLLEAARAGQDDEVRILLKAGADVNAKDSTGWTPLHLAAPWGHPEIVEVLLKAGADVNAKDFQGWTPLHLAAAAGHLEIVEVLLKAGADVNAKDVYGWTPLHIAAASGHLEIVEVLLKAGADVNAKDWLGWTPLHLAASHGHLEIVEVLLKAGADVNAQDKSGKTPADLAARAGHQDIAEVLQKAAGSPTPTPTTPTPTPTTPTPTPTGSDLGKKLLEAARAGQDDEVRELLKAGADVNAKDKDGYTPLHLAAREGHLEIVEVLLKAGADVNAKDKDGYTPLHLAAREGHLEIVEVLLKAGADVNAQDKSGKTPADLAADAGHEDIAEVLQKAAGSPTPTPTTPTPTPTTPTPTPTGSDLGQKLLEAAWAGQDDEVRELLKAGADVNAKNSRGWTPLHTAAQTGHLEIFEVLLKAGADVNAKNDKRVTPLHLAAALGHLEIVEVLLKAGADVNARDSWGTTPADLAAKYGHQDIAEVLQKAA
notes: also called 2-in-1 DARPin18 in Format 3
EC50 (read off the curve) (scCD3εγ [10]): ~90 nM
